From publication PMC4440733 (PLoS ONE, 2015)

Legend:
His-tagged ErbB3 protein = molecular target: T1, His-tagged ErbB3 protein (Homo sapiens (species , human …, UniProt P21860)); test: ELISA; plates coated with anti-his antibody; His-tagged EGFR or ErbB3 captured in PBS with 1% BSA, 1 h RT; gradient-diluted antibodies or DVD-Ig proteins 1 h RT; detected with HRP-conjugated goat-anti-human antibodies; conditions: both partners purified
T1 construct: Receptor tyrosine-protein kinase ErbB3; also called receptor tyrosine-protein kinase 3; source: bought: Invitrogen
T1 sequence (P21860 20-643): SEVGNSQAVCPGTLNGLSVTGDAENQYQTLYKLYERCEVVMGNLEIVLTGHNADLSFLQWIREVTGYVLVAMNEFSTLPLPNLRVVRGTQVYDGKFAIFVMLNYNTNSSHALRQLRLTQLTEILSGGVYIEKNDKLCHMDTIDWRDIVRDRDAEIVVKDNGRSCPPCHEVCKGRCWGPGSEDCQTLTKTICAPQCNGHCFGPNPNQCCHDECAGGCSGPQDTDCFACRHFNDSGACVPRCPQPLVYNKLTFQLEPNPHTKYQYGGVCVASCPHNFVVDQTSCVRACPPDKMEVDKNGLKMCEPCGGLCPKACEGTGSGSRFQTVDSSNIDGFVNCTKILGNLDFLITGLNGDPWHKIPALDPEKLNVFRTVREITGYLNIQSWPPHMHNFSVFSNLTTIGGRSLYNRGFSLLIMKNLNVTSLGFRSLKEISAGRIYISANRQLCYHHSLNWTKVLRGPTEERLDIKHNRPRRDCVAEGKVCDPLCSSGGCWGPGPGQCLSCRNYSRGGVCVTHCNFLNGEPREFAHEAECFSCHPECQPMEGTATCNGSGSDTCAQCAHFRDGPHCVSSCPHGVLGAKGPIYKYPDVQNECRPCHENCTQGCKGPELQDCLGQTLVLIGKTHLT

His-tagged EGFR protein = molecular target: T2, His-tagged EGFR protein (Homo sapiens (species , human …, UniProt P00533)); test: as above; conditions: both partners purified
T2 construct: Epidermal growth factor receptor (EGFR); also called epidermal growth factor receptor; source: bought: Invitrogen

B1: anti-EGFR/ErbB3 bispecific Ab (bsAb), generated from published MEHD7945A sequences (bispecific antibody, V domains shown)
VH: EVQLVESGGGLVQPGGSLRLSCAASGFTLSGDWIHWVRQAPGKGLEWVGEISAAGGYTDYADSVKGRFTISADTSKNTAYLQMNSLRAEDTAVYYCARESRVSFEAAMDYWGQGTLVTVSS
VL: DIQMTQSPSSLSASVGDRVTITCRASQNIATDVAWYQQKPGKAPKLLIYSASFLYSGVPSRFSGSGSGTDFTLTISSLQPEDFATYYCQQSEPEPYTFGQGTKVEIK
notes: also called anti-EGFR/ErbB3 bsAb; two-in-one antibody; source: human embryonic kidney 293 cells, transient, purified (protein A)
EC50 (His-tagged ErbB3 protein): 5.7 nM | EC50 (His-tagged EGFR protein): 1.3 nM
